Results published in PMC12802151.

Key:
[1] = target: Beilong paramyxovirus (HMC isolate) receptor-binding protein, β-propeller head domain with C-terminal extension (BeiV(HMC)-RBPβ+) (Beilong paramyxovirus (BeiV), isolate from human mesangial cells (HMC)); experiment: crystal structure; BeiV(HMC)-RBPβ+ at 3.2 mg/mL, sitting-drop vapor diffusion at room temperature, 0.2 M potassium thiocyanate, 0.1 M sodium cacodylate pH 6.5, 8% poly-γ-glutamic acid polymer; 3.5 Å; a dimer in the asymmetric unit
[2] = target: J paramyxovirus receptor-binding protein, β-propeller head domain with extended C-terminus (JPV-RBPβ+) (J paramyxovirus (JPV)); experiment: crystal structure; JPV-RBPβ+ at 3.5 mg/mL, sitting-drop vapor diffusion at room temperature, 0.1 M tris/bicine pH 8.5, 0.2 M ammonium sulfate, Morpheus precipitant mix 4; 2.2 Å; a dimer in the asymmetric unit

| Substance | stoichiometry N [1] | stoichiometry N [2] |
| --- | --- | --- |
| Beilong paramyxovirus (HMC isolate) receptor-binding protein, β-propeller head domain with C-terminal extension (BeiV(HMC)-RBPβ+) (domain or fragment) | 2 |  |
| J paramyxovirus receptor-binding protein, β-propeller head domain with extended C-terminus (JPV-RBPβ+) (domain or fragment) |  | 2 |
